Assay results reported in patent CN114106163A (ANYUAN MEDICINE SCIENCE AND TECH SHANGHAI LIMITED COMPANY, dated 2022).

How the values were obtained:
刺突S蛋白-鼠Fc融合蛋白 (S-mFc) = molecular target: T1, 刺突S蛋白-鼠Fc融合蛋白 (S-mFc) (SARS-CoV-2; mouse, UniProt P0DTC2 14-1213); assay: FACS, blocking of S-mFc binding to 293T-ACE2 cells
T1 construct: domain: S蛋白全长区段

[1] = molecular target: T2, SARS-CoV-2 S1蛋白 (ACRO Biosystems) (SARS-CoV-2, UniProt P0DTC2 16-685); assay: competition ELISA, S1 coated, HRP-hACE2-Fc as competitor
T2 construct: domain: S1

B1: 人源化抗体hS1B-30-3 (humanized antibody hS1B-30-3) (antibody, V domains shown)
VH: EVQLVESGGGLVQPGGSLRLSCAASGFTFSDAWMDWVRQAPGKGLDWVAQIRNKANSHATNYADSVKGRFTISRDDSKNSVYLQMNSLKTEDTAVYYCIRGLTGYVLDYWGQGTTVTVSS
VL: DIQMTQSPSSLSASVGDRVTITCKASQNVRTAVAWYQQKPGQSPKALIFLASNRHTGVPDRFSGSGSGTDFTLTISSLQPEDFATYFCLQHWNYPLTFGGGTKVEIKR
B1 gave an IC50 (刺突S蛋白-鼠Fc融合蛋白 (S-mFc)) of 0.00691 µg/mL and an EC50 [1] of 0.0331 µg/mL.
